From patent US6884600B1, “Protein phosphatase-1 catalytic subunit interactions” (Medical Research Council London, priority 1996, dated 2005)

Target: PP1c (γ1-isoform) (Homo sapiens, UniProt P36873)
Test: Far Western: GST-GM fusion proteins probed with digoxygenin-labelled PP1γ
Format: binding
Conditions: GST-fusion proteins on blot probed with digoxygenin-labelled PP1γ
Description: GST-GM fusion proteins were electrophoresed on 10% SDS/polyacrylamide gels and stained with Coomassie blue (lanes 1-3) or, after transfer to nitrocellulose, probed with digoxygenin-labelled PP1γ (lanes 4-6) as in [9]. Lanes 1 and 4, GST-GM-(E2-D118); Lanes 2 and 5, GST-GM-(H100-P350); Lanes 3 and 6, GST. The positions of the marker proteins glycogen phosphorylase (97 kDa), bovine serum albumin (66 kDa), ovalbumin (43 kDa), carbonic anhydrase (29 kDa) and soybean trypsin inhibitor (20 kDa) are indicated.
The myosin-associated form of PP1 (PP1M) was from chicken gizzard and the glycogen-associated form of PP1 (PP1G) from rabbit skeletal muscle. The β isoform of PP1c was released from PP1G by incubation for 2 hours in 2M LiBr, then purified by gel-filtration on a 30×1 cm column of Superose 12 (Pharmacia, Milton Keynes, U.K.) in the presence of 0.5M LiBr. Glycogen protein particles from rat liver were used as the source of hepatic PP1G Digoxygenin-labelled PP1c (γ1-isoform, hereafter termed PP1) was prepared as in [9]. GL was expressed in E. coli as a glutathione-S-transferase (GST) fusion protein [7], termed GST-GL. The catalytic subunit of PP2A from bovine heart (PP2AC) was provided by Dr R. MacKintosh in this Unit. The phosphorylatable myosin light chain (MLC20) and heavy meromyosin from chicken gizzard were a gift from Dr M. Ikebe (Case Western Reserve University, Cleveland, USA). Thrombin and benzamidine-Agarose were purchased from Sigma (Poole, UK).
The amino acid sequence of rat hepatic GL is 23% identical (39% similar) to residues 1-286 of GM from human skeletal muscle. […] Fusion proteins in which GST was linked to fragments of GM were therefore tested for their ability to bind to PP1c. […] We therefore synthesised GM-(G63-T93) and examined its effect on the enzymatic properties of PP1GL, the form of PP1 associated with rat hepatic protein-glycogen particles.

Chain of PP1c (γ1-isoform) (P36873 whole entry, the tested form may be a part, canonical isoform): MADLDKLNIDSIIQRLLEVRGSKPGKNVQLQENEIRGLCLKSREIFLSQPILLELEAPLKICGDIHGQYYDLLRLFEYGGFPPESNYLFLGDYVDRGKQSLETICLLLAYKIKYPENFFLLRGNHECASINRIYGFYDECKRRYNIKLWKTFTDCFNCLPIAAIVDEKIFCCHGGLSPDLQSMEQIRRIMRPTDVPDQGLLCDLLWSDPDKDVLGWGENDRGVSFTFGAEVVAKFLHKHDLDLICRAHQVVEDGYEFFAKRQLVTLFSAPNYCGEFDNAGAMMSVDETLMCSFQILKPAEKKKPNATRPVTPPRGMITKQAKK

B1: GST-GM-(H100-P350): GST fusion of amino acids 100-350 of human GM (protein)
chain: HTEEYVLAPLFDLPSSKEDLMQQLQIQKAILESTESLLGSTSIKGIIRVLNVSFEKLVYVRMSLDDWQTHYDILAEYVPNSCDGETDQFSFKIVLVPPYQKDGSKVEFCIRYETSVGTFWSNNNGTNYTFICQKKEQEPEPVKPWKEVPNRQIKGCLKVKSSKEESSVTSEENNFENPKNTDTYIPTIICSHEDKEDLEASNRNVKDVNREHDEHNEKELELMINQHLIRTRSTASRDERNTFSTDPVNFP
modifications: left off: a dimerising Fc or GST
notes: GST fusion of amino acids 100-350 of human GM
With B1 the “interaction with PP1 in Far Western experiments” value was “not”.
